From the supplement of paper PMC10065799, “High-throughput profiling of sequence recognition by tyrosine kinases and SH2 domains using bacterial peptide display” (eLife, 2023)

Assays:
Hck = Hck (UniProt P08631); assay: phosphorylation enrichment, bacterial display (enrichment ratio); higher = better substrate or ligand; peptides without Tyr show the background
c-Abl (mouse) = assay: as above
EPHB2 = EPHB2 (UniProt P29323); assay: as above
c-Src = assay: as above
Jak2 = Jak2 (UniProt O60674); assay: as above
Fer (mouse) = assay: as above
MERTK = MERTK (UniProt Q12866); assay: as above
Chain of MERTK (Q12866 whole entry, looked up): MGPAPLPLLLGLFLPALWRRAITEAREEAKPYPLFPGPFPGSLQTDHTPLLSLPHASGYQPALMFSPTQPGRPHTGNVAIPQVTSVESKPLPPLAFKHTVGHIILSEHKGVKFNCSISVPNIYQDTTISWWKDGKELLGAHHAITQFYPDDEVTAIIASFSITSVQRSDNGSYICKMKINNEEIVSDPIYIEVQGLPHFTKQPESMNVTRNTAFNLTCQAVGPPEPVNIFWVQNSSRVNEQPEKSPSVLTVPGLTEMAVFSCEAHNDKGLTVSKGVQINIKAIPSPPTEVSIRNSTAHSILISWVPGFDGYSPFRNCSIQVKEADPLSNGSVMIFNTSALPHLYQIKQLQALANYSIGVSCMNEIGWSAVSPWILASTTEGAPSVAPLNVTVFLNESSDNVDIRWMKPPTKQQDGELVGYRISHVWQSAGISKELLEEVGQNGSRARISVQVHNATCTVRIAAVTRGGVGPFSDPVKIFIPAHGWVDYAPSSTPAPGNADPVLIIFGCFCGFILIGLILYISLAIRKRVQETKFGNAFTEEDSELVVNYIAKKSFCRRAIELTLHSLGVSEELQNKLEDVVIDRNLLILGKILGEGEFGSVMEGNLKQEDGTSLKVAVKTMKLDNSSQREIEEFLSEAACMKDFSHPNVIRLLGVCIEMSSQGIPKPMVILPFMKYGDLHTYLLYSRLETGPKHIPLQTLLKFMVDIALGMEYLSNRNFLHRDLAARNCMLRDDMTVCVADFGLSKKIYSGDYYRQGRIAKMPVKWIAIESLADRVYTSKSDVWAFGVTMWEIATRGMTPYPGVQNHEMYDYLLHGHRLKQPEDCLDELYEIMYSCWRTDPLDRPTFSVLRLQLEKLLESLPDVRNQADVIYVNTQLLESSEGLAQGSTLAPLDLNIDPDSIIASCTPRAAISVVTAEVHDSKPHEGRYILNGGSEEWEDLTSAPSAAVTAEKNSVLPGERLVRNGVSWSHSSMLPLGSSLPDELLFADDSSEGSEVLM

FGFR1 = FGFR1 (UniProt P11362); assay: as above
Chain of FGFR1 (P11362 whole entry, looked up): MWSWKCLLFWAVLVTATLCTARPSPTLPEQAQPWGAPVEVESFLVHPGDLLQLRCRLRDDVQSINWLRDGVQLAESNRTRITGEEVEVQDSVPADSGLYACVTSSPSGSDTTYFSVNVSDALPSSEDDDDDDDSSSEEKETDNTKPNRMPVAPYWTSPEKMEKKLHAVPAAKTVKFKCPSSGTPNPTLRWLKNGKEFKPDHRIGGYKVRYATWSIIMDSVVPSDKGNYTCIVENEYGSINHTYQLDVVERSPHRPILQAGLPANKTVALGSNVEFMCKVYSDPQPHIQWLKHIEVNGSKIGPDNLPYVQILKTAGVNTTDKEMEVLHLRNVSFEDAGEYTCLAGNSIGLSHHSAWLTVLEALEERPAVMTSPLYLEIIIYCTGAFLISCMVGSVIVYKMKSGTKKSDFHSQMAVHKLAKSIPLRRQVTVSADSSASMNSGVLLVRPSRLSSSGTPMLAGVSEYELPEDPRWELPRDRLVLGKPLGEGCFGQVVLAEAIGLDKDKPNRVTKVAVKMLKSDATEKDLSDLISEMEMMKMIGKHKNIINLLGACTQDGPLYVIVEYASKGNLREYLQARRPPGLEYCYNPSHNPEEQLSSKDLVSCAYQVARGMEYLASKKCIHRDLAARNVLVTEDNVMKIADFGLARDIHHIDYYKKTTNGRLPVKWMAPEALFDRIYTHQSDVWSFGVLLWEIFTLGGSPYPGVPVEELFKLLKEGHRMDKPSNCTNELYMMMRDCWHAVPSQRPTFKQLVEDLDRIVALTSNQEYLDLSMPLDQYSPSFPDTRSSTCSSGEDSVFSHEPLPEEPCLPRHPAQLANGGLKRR

AncSZ = assay: as above
Fes = Fes (UniProt P07332); assay: as above
Fyn = Fyn (UniProt P06241); assay: as above
EPHB1 = EPHB1 (UniProt P54762); assay: as above
Chain of EPHB1 (P54762 whole entry, looked up): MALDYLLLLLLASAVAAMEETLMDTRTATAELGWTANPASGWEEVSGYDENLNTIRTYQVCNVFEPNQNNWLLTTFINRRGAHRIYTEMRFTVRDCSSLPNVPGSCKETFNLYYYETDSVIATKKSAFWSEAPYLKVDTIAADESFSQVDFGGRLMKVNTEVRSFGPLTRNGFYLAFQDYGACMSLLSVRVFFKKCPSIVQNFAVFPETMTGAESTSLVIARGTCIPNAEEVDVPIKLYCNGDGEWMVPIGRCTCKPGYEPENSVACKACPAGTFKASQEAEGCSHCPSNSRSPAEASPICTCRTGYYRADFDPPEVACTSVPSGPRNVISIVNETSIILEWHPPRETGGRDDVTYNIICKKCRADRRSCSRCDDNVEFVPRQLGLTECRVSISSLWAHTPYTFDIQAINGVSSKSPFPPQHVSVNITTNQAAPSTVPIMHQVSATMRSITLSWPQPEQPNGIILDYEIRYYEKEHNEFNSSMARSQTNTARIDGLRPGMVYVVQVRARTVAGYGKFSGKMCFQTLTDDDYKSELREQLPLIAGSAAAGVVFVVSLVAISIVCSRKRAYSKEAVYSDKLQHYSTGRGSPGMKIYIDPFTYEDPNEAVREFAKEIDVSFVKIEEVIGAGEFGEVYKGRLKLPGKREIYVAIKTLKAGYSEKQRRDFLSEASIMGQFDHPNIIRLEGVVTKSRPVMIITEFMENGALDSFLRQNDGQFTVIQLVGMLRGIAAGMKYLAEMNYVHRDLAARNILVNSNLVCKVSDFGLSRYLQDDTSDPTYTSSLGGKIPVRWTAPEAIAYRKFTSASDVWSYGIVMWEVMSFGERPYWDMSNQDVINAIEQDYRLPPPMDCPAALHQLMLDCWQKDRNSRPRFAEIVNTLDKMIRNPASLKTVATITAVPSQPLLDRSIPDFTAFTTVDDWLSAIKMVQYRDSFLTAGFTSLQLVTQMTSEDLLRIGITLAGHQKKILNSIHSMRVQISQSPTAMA

FGFR3 = FGFR3 (UniProt P22607); assay: as above
Chain of FGFR3 (P22607 whole entry, looked up): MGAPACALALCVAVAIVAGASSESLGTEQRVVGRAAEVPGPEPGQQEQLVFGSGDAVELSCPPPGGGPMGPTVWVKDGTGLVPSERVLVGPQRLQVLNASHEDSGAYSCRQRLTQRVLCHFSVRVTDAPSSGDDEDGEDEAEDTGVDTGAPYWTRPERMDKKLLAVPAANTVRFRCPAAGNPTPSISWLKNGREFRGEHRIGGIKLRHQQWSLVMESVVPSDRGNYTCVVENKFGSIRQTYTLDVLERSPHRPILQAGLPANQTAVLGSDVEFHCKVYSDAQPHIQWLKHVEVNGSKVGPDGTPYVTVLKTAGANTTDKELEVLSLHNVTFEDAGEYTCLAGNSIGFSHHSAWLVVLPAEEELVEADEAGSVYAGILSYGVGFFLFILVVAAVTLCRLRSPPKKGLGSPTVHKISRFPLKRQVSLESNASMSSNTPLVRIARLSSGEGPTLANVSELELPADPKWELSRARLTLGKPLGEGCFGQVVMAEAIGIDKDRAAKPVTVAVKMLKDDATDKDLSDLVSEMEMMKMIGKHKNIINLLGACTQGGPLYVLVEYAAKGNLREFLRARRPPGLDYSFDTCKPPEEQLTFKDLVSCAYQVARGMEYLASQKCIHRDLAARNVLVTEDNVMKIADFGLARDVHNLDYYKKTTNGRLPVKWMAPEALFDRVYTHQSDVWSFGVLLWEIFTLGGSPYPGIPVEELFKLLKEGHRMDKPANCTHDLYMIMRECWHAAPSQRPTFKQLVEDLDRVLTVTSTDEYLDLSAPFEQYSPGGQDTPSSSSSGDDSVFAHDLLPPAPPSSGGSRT

SHP2-C SH2 = assay: SH2 binding enrichment of the phosphorylated peptide, bacterial display (enrichment ratio); higher = better substrate or ligand; peptides without Tyr show the background
c-Src SH2 = assay: as above
Grb2 SH2 = Grb2 SH2 (UniProt P62993); assay: as above
Chain of Grb2 SH2 (P62993 whole entry, looked up, the tested form may be a part): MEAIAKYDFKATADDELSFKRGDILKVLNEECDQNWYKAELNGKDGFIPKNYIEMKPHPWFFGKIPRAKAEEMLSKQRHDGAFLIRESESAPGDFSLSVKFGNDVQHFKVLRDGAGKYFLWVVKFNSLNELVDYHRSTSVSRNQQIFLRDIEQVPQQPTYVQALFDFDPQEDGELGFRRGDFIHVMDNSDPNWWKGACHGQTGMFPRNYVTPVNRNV
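For SH2 binding enrichment of the phosphorylated peptide, bacterial display in this document: peptide library displayed on the E. coli surface as eCPX fusions, selected cells deep-sequenced, score is each peptide's frequency after selection divided by its frequency in the input.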
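For phosphorylation enrichment, bacterial display in this document: 11-residue human phosphosite peptides and single-mutation variants displayed on the E. coli surface, counted by deep sequencing, each peptide's frequency after selection divided by its frequency in the unselected input library; frequency after pTyr selection over input frequency; kinase dosed for 20-30% of maximal phosphorylation in three min.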

Chain of EPHB2 (P29323 whole entry, looked up): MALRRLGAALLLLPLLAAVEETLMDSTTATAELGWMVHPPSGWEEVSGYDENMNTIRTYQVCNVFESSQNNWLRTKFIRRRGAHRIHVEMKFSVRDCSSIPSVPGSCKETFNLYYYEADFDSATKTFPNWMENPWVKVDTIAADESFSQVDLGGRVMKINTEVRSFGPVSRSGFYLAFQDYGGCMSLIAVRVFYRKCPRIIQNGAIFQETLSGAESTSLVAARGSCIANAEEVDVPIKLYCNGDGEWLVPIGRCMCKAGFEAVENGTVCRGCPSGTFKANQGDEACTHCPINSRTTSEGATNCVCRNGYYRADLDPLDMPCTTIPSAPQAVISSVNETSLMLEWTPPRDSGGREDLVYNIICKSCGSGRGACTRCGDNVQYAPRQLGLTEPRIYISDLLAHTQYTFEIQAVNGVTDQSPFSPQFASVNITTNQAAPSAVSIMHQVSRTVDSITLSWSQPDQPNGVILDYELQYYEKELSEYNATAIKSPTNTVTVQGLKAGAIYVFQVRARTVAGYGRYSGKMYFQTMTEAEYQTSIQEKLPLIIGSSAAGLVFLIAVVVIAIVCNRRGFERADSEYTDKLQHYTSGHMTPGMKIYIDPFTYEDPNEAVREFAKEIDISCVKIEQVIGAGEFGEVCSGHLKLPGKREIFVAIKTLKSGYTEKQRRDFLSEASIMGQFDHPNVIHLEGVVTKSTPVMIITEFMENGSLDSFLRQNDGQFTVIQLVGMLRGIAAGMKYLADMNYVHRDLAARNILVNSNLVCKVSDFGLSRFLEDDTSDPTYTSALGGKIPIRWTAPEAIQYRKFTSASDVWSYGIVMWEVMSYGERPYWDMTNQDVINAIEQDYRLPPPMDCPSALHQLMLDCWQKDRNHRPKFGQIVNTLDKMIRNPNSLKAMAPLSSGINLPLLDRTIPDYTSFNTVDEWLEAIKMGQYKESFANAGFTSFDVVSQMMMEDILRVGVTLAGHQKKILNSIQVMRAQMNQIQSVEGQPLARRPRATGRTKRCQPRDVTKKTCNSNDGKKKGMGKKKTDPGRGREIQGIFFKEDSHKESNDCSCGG

Work on HTDDGYMPMSP [IRS1_Y612] yielded a phosphorylation enrichment (Hck) of 0.834, a phosphorylation enrichment (c-Abl (mouse)) of 1.04 and a phosphorylation enrichment (EPHB2) of 0.756. For the same sequence, the phosphorylation enrichment (c-Src) was 0.503, the phosphorylation enrichment (Jak2) was 1.37 and the phosphorylation enrichment (Fer (mouse)) was 0.824. The phosphorylation enrichment (MERTK) was 0.883, the phosphorylation enrichment (FGFR1) was 1.45 and the phosphorylation enrichment (AncSZ) was 1.94. The phosphorylation enrichment (Fes) was 1.59, the phosphorylation enrichment (Fyn) was 0.839 and the phosphorylation enrichment (EPHB1) was 0.787. For the same sequence, the phosphorylation enrichment (FGFR3) was 0.757, the SH2 binding enrichment (SHP2-C SH2) was 0.882 and the SH2 binding enrichment (c-Src SH2) was 2.53. The SH2 binding enrichment (Grb2 SH2) was 0.771.

In the case of NFNPNYCFAGK [ALK_Y1096_D1091N_YF], the phosphorylation enrichment (Hck) is reported as 0.651, the phosphorylation enrichment (c-Abl (mouse)) is reported as 0.617 and the phosphorylation enrichment (EPHB2) is reported as 1.01. The phosphorylation enrichment (c-Src) was 0.472, the phosphorylation enrichment (Jak2) was 0.744 and the phosphorylation enrichment (Fer (mouse)) was 0.706. It also gave a phosphorylation enrichment (MERTK) of 0.846, a phosphorylation enrichment (FGFR1) of 0.548 and a phosphorylation enrichment (AncSZ) of 1.25. It also gave a phosphorylation enrichment (Fes) of 0.821, a phosphorylation enrichment (Fyn) of 0.612 and a phosphorylation enrichment (EPHB1) of 2.56. For the same sequence, the phosphorylation enrichment (FGFR3) was 0.666, the SH2 binding enrichment (SHP2-C SH2) was 0.881 and the SH2 binding enrichment (c-Src SH2) was 0.681. For the same sequence, the SH2 binding enrichment (Grb2 SH2) was 0.876.

For EWLRRYLENGK [HLA-A_Y195], the phosphorylation enrichment (Hck) was 0.387, the phosphorylation enrichment (c-Abl (mouse)) was 0.581 and the phosphorylation enrichment (EPHB2) was 0.456. For the same sequence, the phosphorylation enrichment (c-Src) was 0.346, the phosphorylation enrichment (Jak2) was 0.661 and the phosphorylation enrichment (Fer (mouse)) was 0.36. It also gave a phosphorylation enrichment (MERTK) of 0.328, a phosphorylation enrichment (FGFR1) of 0.42 and a phosphorylation enrichment (AncSZ) of 0.691. It also gave a phosphorylation enrichment (Fes) of 0.809, a phosphorylation enrichment (Fyn) of 0.346 and a phosphorylation enrichment (EPHB1) of 0.386. It also gave a phosphorylation enrichment (FGFR3) of 0.498, an SH2 binding enrichment (SHP2-C SH2) of 0.757 and an SH2 binding enrichment (c-Src SH2) of 0.522. For the same sequence, the SH2 binding enrichment (Grb2 SH2) was 0.932.

HNQDGYSFPSR [LDLR_Y845_YF] showed a phosphorylation enrichment (Hck) of 0.748, a phosphorylation enrichment (c-Abl (mouse)) of 1.31 and a phosphorylation enrichment (EPHB2) of 0.939. It also gave a phosphorylation enrichment (c-Src) of 1.02, a phosphorylation enrichment (Jak2) of 1.55 and a phosphorylation enrichment (Fer (mouse)) of 0.871. It also gave a phosphorylation enrichment (MERTK) of 1.15, a phosphorylation enrichment (FGFR1) of 0.906 and a phosphorylation enrichment (AncSZ) of 1.94. For the same sequence, the phosphorylation enrichment (Fes) was 1.45, the phosphorylation enrichment (Fyn) was 0.996 and the phosphorylation enrichment (EPHB1) was 0.762. The phosphorylation enrichment (FGFR3) was 1.08, the SH2 binding enrichment (SHP2-C SH2) was 0.76 and the SH2 binding enrichment (c-Src SH2) was 4.23. The SH2 binding enrichment (Grb2 SH2) was 1.06.

For PLGVLYKVKVY [PTS_Y128_V124L], the phosphorylation enrichment (Hck) was 0.465, the phosphorylation enrichment (c-Abl (mouse)) was 0.876 and the phosphorylation enrichment (EPHB2) was 0.626. The phosphorylation enrichment (c-Src) was 0.36, the phosphorylation enrichment (Jak2) was 1.19 and the phosphorylation enrichment (Fer (mouse)) was 0.511. The phosphorylation enrichment (MERTK) was 0.318, the phosphorylation enrichment (FGFR1) was 0.415 and the phosphorylation enrichment (AncSZ) was 1.61. The phosphorylation enrichment (Fes) was 1.4, the phosphorylation enrichment (Fyn) was 0.339 and the phosphorylation enrichment (EPHB1) was 0.674. The phosphorylation enrichment (FGFR3) was 0.82, the SH2 binding enrichment (SHP2-C SH2) was 0.817 and the SH2 binding enrichment (c-Src SH2) was 0.484. The SH2 binding enrichment (Grb2 SH2) was 0.828.

VRTGIYHGGEP [PIK3CA_Y361] gave a phosphorylation enrichment (Hck) of 0.586, a phosphorylation enrichment (c-Abl (mouse)) of 0.496 and a phosphorylation enrichment (EPHB2) of 0.421. The phosphorylation enrichment (c-Src) was 0.498, the phosphorylation enrichment (Jak2) was 0.558 and the phosphorylation enrichment (Fer (mouse)) was 0.457. The phosphorylation enrichment (MERTK) was 0.431, the phosphorylation enrichment (FGFR1) was 0.542 and the phosphorylation enrichment (AncSZ) was 0.641. For the same sequence, the phosphorylation enrichment (Fes) was 0.659, the phosphorylation enrichment (Fyn) was 0.568 and the phosphorylation enrichment (EPHB1) was 0.419. For the same sequence, the phosphorylation enrichment (FGFR3) was 0.407, the SH2 binding enrichment (SHP2-C SH2) was 0.588 and the SH2 binding enrichment (c-Src SH2) was 0.51. For the same sequence, the SH2 binding enrichment (Grb2 SH2) was 0.888.

AVARPYHIQKW [ACSBG1_Y677_A673V] was tested, and the phosphorylation enrichment (Hck) was 0.402, the phosphorylation enrichment (c-Abl (mouse)) was 0.573 and the phosphorylation enrichment (EPHB2) was 0.358. The phosphorylation enrichment (c-Src) was 0.401, the phosphorylation enrichment (Jak2) was 0.461 and the phosphorylation enrichment (Fer (mouse)) was 0.332. For the same sequence, the phosphorylation enrichment (MERTK) was 0.362, the phosphorylation enrichment (FGFR1) was 0.468 and the phosphorylation enrichment (AncSZ) was 0.643. It also gave a phosphorylation enrichment (Fes) of 0.584, a phosphorylation enrichment (Fyn) of 0.391 and a phosphorylation enrichment (EPHB1) of 0.381. It also gave a phosphorylation enrichment (FGFR3) of 0.506, an SH2 binding enrichment (SHP2-C SH2) of 1.31 and an SH2 binding enrichment (c-Src SH2) of 1.27. It also gave an SH2 binding enrichment (Grb2 SH2) of 1.85.

In the case of KKIMGYSIRTI [IDS_Y490_I485K], the phosphorylation enrichment (Hck) is reported as 0.387, the phosphorylation enrichment (c-Abl (mouse)) is reported as 0.538 and the phosphorylation enrichment (EPHB2) is reported as 0.405. It also gave a phosphorylation enrichment (c-Src) of 0.364, a phosphorylation enrichment (Jak2) of 0.537 and a phosphorylation enrichment (Fer (mouse)) of 0.394. It also gave a phosphorylation enrichment (MERTK) of 0.366, a phosphorylation enrichment (FGFR1) of 0.392 and a phosphorylation enrichment (AncSZ) of 0.625. It also gave a phosphorylation enrichment (Fes) of 0.571, a phosphorylation enrichment (Fyn) of 0.304 and a phosphorylation enrichment (EPHB1) of 0.41. The phosphorylation enrichment (FGFR3) was 0.332, the SH2 binding enrichment (SHP2-C SH2) was 1.2 and the SH2 binding enrichment (c-Src SH2) was 1.32. For the same sequence, the SH2 binding enrichment (Grb2 SH2) was 1.67.
